From the supplement of paper PMC10567573 come the findings set out here.

Sequences and labels used below:
B1: HSP90AB1 (parent)
chain: YHTSQSGDEMTSLSEYVSRMKETQ
B2: INTS3 (parent)
chain: EEITEESLEESVGKPLYLIFRNLC
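Note: lentivirally expressed fusions sorted by FACS into six bins by GFP to DsRed ratio, PSI derived from sequencing read proportions per bin multiplied by bin number.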

The first data set covers variants of B1. Kind of data set: protein stability index of a GFP-peptide fusion (GPS, HEK-293T) (PSI 1-6); higher = more stable. The note with it: c terminus: a fixed tail appended.
Take YHTSQSGDEMTSLSEYVSRMKETR: the protein stability index is 3.53. Same read-out and setting: next, YHTSQSGDEMTSLSEYVSRMKETF: 3.16. YHTSQSGDEMTSLSEYVSRMKETP: the protein stability index came out at 3.43. On the same count and under the same terms, the figure for YHTSQSGDEMTSLSEYVSRMKETK is 3.43; for YHTSQSGDECTSLSEYVSRMKETQ it is 4.05.

YHTSQSGDETTSLSEYVSRMKETQ: the protein stability index turned out to be 3.73. Take YHTSQSGDEQTSLSEYVSRMKETQ: the protein stability index was found to be 4.05. As for YHTSQSGDPMTSLSEYVSRMKETQ, the protein stability index was found to be 3.51. The same measure, in the same setting: the figure for YHTSQSGDTMTSLSEYVSRMKETQ is 3.66; for YHTSQSGDWMTSLSEYVSRMKETQ it is 1.87; for YHTSQSGDMMTSLSEYVSRMKETQ it is 2.52. Turning to YHTSQSGDYMTSLSEYVSRMKETQ, the protein stability index turned out to be 2.58. The same measure, in the same setting: next, YHTSQSGDEMTSLSEYVSRMKEEQ: 2.89; YHTSQSGDEMTSLSEYVSRMKEHQ: 3.59. Same read-out and setting: the figure for YHTSQSGDEMTSLSEYVSRMKEVQ is 4.14; for YHTSQSGDEMTSLSEYVSRMKEMQ it is 3.29. The same measure, in the same setting: next, YHTQQSGDEMTSLSEYVSRMKETQ: 3.34; YHTIQSGDEMTSLSEYVSRMKETQ: 2.51; YHTDQSGDEMTSLSEYVSRMKETQ: 3.49. Turning to YHTVQSGDEMTSLSEYVSRMKETQ, the protein stability index came out at 3.12. For YHTSQSGDEMTSSSEYVSRMKETQ, the protein stability index was found to be 3.68.

Consider YHTSQSGDEMTSHSEYVSRMKETQ, for which the protein stability index was 3.88. The same measure, in the same setting: the figure for YHTSQSGDEMTSRSEYVSRMKETQ is 4.21; for YHTSQSGDEMTSASEYVSRMKETQ it is 4.37. As for YHTSQSGDEMTSGSEYVSRMKETQ, the protein stability index was 4.27. On the same count and under the same terms, next, YHTSQSGDEMTSLSEYVSRMKGTQ: 3.33; YHTSQSGDEMTSLSEYVSRMKMTQ: 3.31. The same measure, in the same setting: next, YHTSQSGDEMTSLSEYVSRMKLTQ: 3.54; YHTSQSGDEMTSLSEYVSRMKKTQ: 3.63. The same measure, in the same setting: the figure for YHTSQSGDEMTSLSEYVSRMKWTQ is 1.79; for EHTSQSGDEMTSLSEYVSRMKETQ it is 4.97; for IHTSQSGDEMTSLSEYVSRMKETQ it is 4.49. For the variant MHTSQSGDEMTSLSEYVSRMKETQ, the protein stability index came out at 4.06. Same read-out and setting: the figure for YHTSQSGDEMTSLSEYVSGMKETQ is 4.09; for YHTSQSGDEMTSLSEYVSWMKETQ it is 3.46.

As for YHTSQSGDEMTSLSEYVSSMKETQ, the protein stability index turned out to be 3.8. The same measure, in the same setting: next, YHTSQSGDEMTSLSEYVSRFKETQ: 2.89; YHTSQSGDEMTSLSEYVSRSKETQ: 3.73; YHTSQSGDEMTSLSEYVSRIKETQ: 3.29.

Regarding YHTSQSGDEMTSLSECVSRMKETQ, the protein stability index is 4.16. Still for that read-out and setting: next, YHTSQSGDEMDSLSEYVSRMKETQ: 3.81; YHTSQSGDEMVSLSEYVSRMKETQ: 3.68; YHTSQSGDEMASLSEYVSRMKETQ: 3.51. On the same count and under the same terms, next, YHTSQSGDEMWSLSEYVSRMKETQ: 2.01; YHTSQSGDEMRSLSEYVSRMKETQ: 3.53; YHTSQSGDEMTSLSTYVSRMKETQ: 2.79. YHTSQSGDEMTSLSKYVSRMKETQ: the protein stability index is 3.48. For the variant YHTSQSGDEMTSLSGYVSRMKETQ, the protein stability index came out at 2.68.

Consider YHTSQSCDEMTSLSEYVSRMKETQ, for which the protein stability index was found to be 3.33. Take YHTSQSKDEMTSLSEYVSRMKETQ: the protein stability index is 3.33. As to YHTSQSRDEMTSLSEYVSRMKETQ, the protein stability index is 3.44.

For the variant YHTSQSSDEMTSLSEYVSRMKETQ, the protein stability index turned out to be 3.67. Same read-out and setting: the figure for YHTSQSYDEMTSLSEYVSRMKETQ is 2.98; for YHTSQSMDEMTSLSEYVSRMKETQ it is 3.47. Same read-out and setting: the figure for YHTSQSGDEMTSLSEYVWRMKETQ is 1.77; for YHTSQSGDEMTSLSEYVCRMKETQ it is 2.87; for YHTSQSGDEMTSLSEYVVRMKETQ it is 3.23. YHGSQSGDEMTSLSEYVSRMKETQ: the protein stability index worked out at 3.41. As to YHCSQSGDEMTSLSEYVSRMKETQ, the protein stability index came out at 3.22. Still for that read-out and setting: the figure for YHDSQSGDEMTSLSEYVSRMKETQ is 4.53. The same measure, in the same setting: the figure for YHHSQSGDEMTSLSEYVSRMKETQ is 3.67; for YHTSQSGDEMTSLSEYKSRMKETQ it is 4.08. As to YHTSQSGDEMTSLSEYFSRMKETQ, the protein stability index was determined as 3.23. Same read-out and setting: the figure for YHTSQSGDEMTSLSEYESRMKETQ is 4.49; for YHTSQSGDEMTSLSEYDSRMKETQ it is 4.57; for YHTSQSGDEMTSLSEYWSRMKETQ it is 2.41.

Take YHTSQSGSEMTSLSEYVSRMKETQ: the protein stability index came to 3.77. Turning to YHTSQSGYEMTSLSEYVSRMKETQ, the protein stability index came to 2.26. YHTSQSGAEMTSLSEYVSRMKETQ: the protein stability index amounted to 3.53. As for YHTSQPGDEMTSLSEYVSRMKETQ, the protein stability index was 3.02. Still for that read-out and setting: next, YHTSQWGDEMTSLSEYVSRMKETQ: 1.88; YHTSQCGDEMTSLSEYVSRMKETQ: 3.22; YHTSQSGDEMTYLSEYVSRMKETQ: 2.81.

In the case of YHTSQSGDEMTQLSEYVSRMKETQ, the protein stability index amounted to 3.36.

Regarding YHTSQSGDEMTCLSEYVSRMKETQ, the protein stability index is 2.87. Turning to YHTSQSGDEMTLLSEYVSRMKETQ, the protein stability index came to 2.49.

With YHTSQSGDEMTHLSEYVSRMKETQ, the protein stability index was 3.52. For the variant YYTSQSGDEMTSLSEYVSRMKETQ, the protein stability index turned out to be 3.15. In the case of YWTSQSGDEMTSLSEYVSRMKETQ, the protein stability index was determined as 3.52.

Take YHTSQSGDEMTSLREYVSRMKETQ: the protein stability index stood at 3.57. On to YHTSQSGDEMTSLLEYVSRMKETQ, for which the protein stability index came to 2.65.

YHTSQSGDEMTSLSEYVSRMQETQ: the protein stability index came out at 3.32.

As for YHTSQSGDEMTSLSEYVSRMDETQ, the protein stability index came out at 4.08. Consider YHTSQSGDEMTSLSEYVSRMYETQ, for which the protein stability index was 2.61. On to YHTSQSGDEMTSLSEYVSRMVETQ, for which the protein stability index is 3.58. On the same count and under the same terms, the figure for YHTSQSGDEMTSLSEYVSRMCETQ is 3.47.

A further data set covers variants of B2. The data set is described as above. The note with it: c terminus: a fixed tail appended.
Take GEITEESLEESVGKPLYLIFRNLC: the protein stability index amounted to 2.69.

Consider IEITEESLEESVGKPLYLIFRNLC, for which the protein stability index is 2.22. As to FEITEESLEESVGKPLYLIFRNLC, the protein stability index was 1.8. The same measure, in the same setting: next, YEITEESLEESVGKPLYLIFRNLC: 2.3; KEITEESLEESVGKPLYLIFRNLC: 2.51. The same measure, in the same setting: the figure for EEITEESLEESYGKPLYLIFRNLC is 2.36. As for EEITEESLEESHGKPLYLIFRNLC, the protein stability index was 3.28. The same measure, in the same setting: the figure for EEITEESLEESGGKPLYLIFRNLC is 3.12.
